From article PMC10570040

Legend:
[1] = target: T1, EnfR wild-type (TON_1525) (Thermococcus onnurineus NA1) (UniProt B6YTS4); experiment: EMSA; details: EMSA: 10 mM Tris pH 7.4, 200 mM KCl, 2 mM DTT, 0.2 mM EDTA, 37 C 20 min, ITC: 10 mM Tris-HCl pH 7.4, 200 mM KCl, 1 mM TCEP, 25 C, footprint: 20 mM …
T1 sequence: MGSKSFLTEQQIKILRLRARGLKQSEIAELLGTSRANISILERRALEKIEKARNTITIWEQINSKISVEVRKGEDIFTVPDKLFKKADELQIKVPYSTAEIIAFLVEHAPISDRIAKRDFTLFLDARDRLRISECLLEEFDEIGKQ

[2] = target: T1, EnfR wild-type (TON_1525) (Thermococcus onnurineus NA1); experiment: DNase I footprinting; details: EMSA: 10 mM Tris pH 7.4, 200 mM KCl, 2 mM DTT, 0.2 mM EDTA, 37 C 20 min, ITC: 10 mM Tris-HCl pH 7.4, 200 mM KCl, 1 mM TCEP, 25 C, footprint: 20 mM …

Sequence | binding [1] | binding [2]
AACAGGGTGTTACATACTTTTATTTTCAATTCTAAGCTTCAAAAAACTCTTTTAAAAGTGAACATCCAATTAGGTTTGGGAAATGGTAAACAAAATTGTAAAAGGGTGTTTTGAACCAAACGTGGGGTGATAGAAAGATGGCATTTAT (double strand) [P1582] | binds | 
GAGAGTTTTACTGTCTCTAAATGAAAGGTTCTAATACGGTGGATCGAATAATTTCTTGCGTTTTTATCCGGATCGCCGAACACGATTCCATCTTAAAATCTTTTTGTTTACATTATACGAGGTGATCAACAATGCCAGCTTTTTCCGGTT (double strand) [150-bp codh promoter probe] |  | binds
